US20160333062A1 (REGENTS OF THE UNIVERSITY OF COLORADO A BODY CORPORATE, published 2016)
Non-standard residues stand in square brackets, D forms with d. No end group written: not given here.

B1: D-Dermaseptin S4 L7K, A14K (peptide)
peptide: [dA][dL][dW][dM][dT][dL][dK][dK][dK][dV][dL][dK][dA][dK][dA][dK][dA][dL][dN][dA][dV][dL][dV]G[dA][dN][dA]-NH2
modifications: N-terminus assumed
SMILES: CSCC[C@@H](NC(=O)[C@@H](Cc1c[nH]c2ccccc12)NC(=O)[C@@H](CC(C)C)NC(=O)[C@@H](C)N)C(=O)N[C@@H](C(=O)N[C@H](CC(C)C)C(=O)N[C@H](CCCCN)C(=O)N[C@H](CCCCN)C(=O)N[C@H](CCCCN)C(=O)N[C@@H](C(=O)N[C@H](CC(C)C)C(=O)N[C@H](CCCCN)C(=O)N[C@H](C)C(=O)N[C@H](CCCCN)C(=O)N[C@H](C)C(=O)N[C@H](CCCCN)C(=O)N[C@H](C)C(=O)N[C@H](CC(C)C)C(=O)N[C@H](CC(N)=O)C(=O)N[C@H](C)C(=O)N[C@@H](C(=O)N[C@H](CC(C)C)C(=O)N[C@@H](C(=O)NCC(=O)N[C@H](C)C(=O)N[C@H](CC(N)=O)C(=O)N[C@H](C)C(N)=O)C(C)C)C(C)C)C(C)C)[C@H](C)O
notes: Synthetic all-D analog; also called D-Dermaseptin S4 L7K, A14K (27-mer)
B2: D-Piscidin 1 I9K (peptide)
peptide: [dF][dF][dH][dH][dI][dF][dR]G[dK][dV][dH][dV]G[dK][dT][dI][dH][dR][dL][dV][dT]G-NH2
modifications: N-terminus assumed
SMILES: CC[C@@H](C)[C@@H](NC(=O)[C@@H](Cc1c[nH]cn1)NC(=O)[C@@H](Cc1c[nH]cn1)NC(=O)[C@@H](Cc1ccccc1)NC(=O)[C@H](N)Cc1ccccc1)C(=O)N[C@H](Cc1ccccc1)C(=O)N[C@H](CCCNC(=N)N)C(=O)NCC(=O)N[C@H](CCCCN)C(=O)N[C@@H](C(=O)N[C@H](Cc1c[nH]cn1)C(=O)N[C@@H](C(=O)NCC(=O)N[C@H](CCCCN)C(=O)N[C@@H](C(=O)N[C@@H](C(=O)N[C@H](Cc1c[nH]cn1)C(=O)N[C@H](CCCNC(=N)N)C(=O)N[C@H](CC(C)C)C(=O)N[C@@H](C(=O)N[C@@H](C(=O)NCC(N)=O)[C@H](C)O)C(C)C)[C@H](C)CC)[C@H](C)O)C(C)C)C(C)C
notes: Synthetic all-D analog; also called D-Piscidin I9K
B3: D-Piscidin 1 V12K (peptide)
peptide: [dF][dF][dH][dH][dI][dF][dR]G[dI][dV][dH][dK]G[dK][dT][dI][dH][dR][dL][dV][dT]G-NH2
modifications: N-terminus assumed
SMILES: CC[C@@H](C)[C@@H](NC(=O)CNC(=O)[C@@H](CCCNC(=N)N)NC(=O)[C@@H](Cc1ccccc1)NC(=O)[C@H](NC(=O)[C@@H](Cc1c[nH]cn1)NC(=O)[C@@H](Cc1c[nH]cn1)NC(=O)[C@@H](Cc1ccccc1)NC(=O)[C@H](N)Cc1ccccc1)[C@H](C)CC)C(=O)N[C@@H](C(=O)N[C@H](Cc1c[nH]cn1)C(=O)N[C@H](CCCCN)C(=O)NCC(=O)N[C@H](CCCCN)C(=O)N[C@@H](C(=O)N[C@@H](C(=O)N[C@H](Cc1c[nH]cn1)C(=O)N[C@H](CCCNC(=N)N)C(=O)N[C@H](CC(C)C)C(=O)N[C@@H](C(=O)N[C@@H](C(=O)NCC(N)=O)[C@H](C)O)C(C)C)[C@H](C)CC)[C@H](C)O)C(C)C
notes: Synthetic all-D analog
B4: Control C (peptide)
peptide: Ac-ELEKGGLEGEKGGKELEK-NH2
notes: also called control peptide C; random coil control peptide (C)
B5: D-Dermaseptin S4 L7K (peptide)
peptide: [dA][dL][dW][dM][dT][dL][dK][dK][dK][dV][dL][dK][dA][dA][dA][dK][dA][dL][dN][dA][dV][dL][dV]G[dA][dN][dA]-NH2
modifications: N-terminus assumed
SMILES: CSCC[C@@H](NC(=O)[C@@H](Cc1c[nH]c2ccccc12)NC(=O)[C@@H](CC(C)C)NC(=O)[C@@H](C)N)C(=O)N[C@@H](C(=O)N[C@H](CC(C)C)C(=O)N[C@H](CCCCN)C(=O)N[C@H](CCCCN)C(=O)N[C@H](CCCCN)C(=O)N[C@@H](C(=O)N[C@H](CC(C)C)C(=O)N[C@H](CCCCN)C(=O)N[C@H](C)C(=O)N[C@H](C)C(=O)N[C@H](C)C(=O)N[C@H](CCCCN)C(=O)N[C@H](C)C(=O)N[C@H](CC(C)C)C(=O)N[C@H](CC(N)=O)C(=O)N[C@H](C)C(=O)N[C@@H](C(=O)N[C@H](CC(C)C)C(=O)N[C@@H](C(=O)NCC(=O)N[C@H](C)C(=O)N[C@H](CC(N)=O)C(=O)N[C@H](C)C(N)=O)C(C)C)C(C)C)C(C)C)[C@H](C)O
notes: Synthetic all-D analog; also called D-Dermaseptin S4 L7K (27-mer)
B6: D-Piscidin 1 (peptide)
peptide: [dF][dF][dH][dH][dI][dF][dR]G[dI][dV][dH][dV]G[dK][dT][dI][dH][dR][dL][dV][dT]G-NH2
modifications: N-terminus assumed
SMILES: CC[C@@H](C)[C@@H](NC(=O)CNC(=O)[C@@H](CCCNC(=N)N)NC(=O)[C@@H](Cc1ccccc1)NC(=O)[C@H](NC(=O)[C@@H](Cc1c[nH]cn1)NC(=O)[C@@H](Cc1c[nH]cn1)NC(=O)[C@@H](Cc1ccccc1)NC(=O)[C@H](N)Cc1ccccc1)[C@H](C)CC)C(=O)N[C@@H](C(=O)N[C@H](Cc1c[nH]cn1)C(=O)N[C@@H](C(=O)NCC(=O)N[C@H](CCCCN)C(=O)N[C@@H](C(=O)N[C@@H](C(=O)N[C@H](Cc1c[nH]cn1)C(=O)N[C@H](CCCNC(=N)N)C(=O)N[C@H](CC(C)C)C(=O)N[C@@H](C(=O)N[C@@H](C(=O)NCC(N)=O)[C@H](C)O)C(C)C)[C@H](C)CC)[C@H](C)O)C(C)C)C(C)C
notes: also called native D-Piscidin 1
B7: D-Piscidin 1 G13K (peptide)
peptide: [dF][dF][dH][dH][dI][dF][dR]G[dI][dV][dH][dV][dK][dK][dT][dI][dH][dR][dL][dV][dT]G-NH2
modifications: N-terminus assumed
SMILES: CC[C@@H](C)[C@@H](NC(=O)CNC(=O)[C@@H](CCCNC(=N)N)NC(=O)[C@@H](Cc1ccccc1)NC(=O)[C@H](NC(=O)[C@@H](Cc1c[nH]cn1)NC(=O)[C@@H](Cc1c[nH]cn1)NC(=O)[C@@H](Cc1ccccc1)NC(=O)[C@H](N)Cc1ccccc1)[C@H](C)CC)C(=O)N[C@@H](C(=O)N[C@H](Cc1c[nH]cn1)C(=O)N[C@@H](C(=O)N[C@H](CCCCN)C(=O)N[C@H](CCCCN)C(=O)N[C@@H](C(=O)N[C@@H](C(=O)N[C@H](Cc1c[nH]cn1)C(=O)N[C@H](CCCNC(=N)N)C(=O)N[C@H](CC(C)C)C(=O)N[C@@H](C(=O)N[C@@H](C(=O)NCC(N)=O)[C@H](C)O)C(C)C)[C@H](C)CC)[C@H](C)O)C(C)C)C(C)C
notes: Synthetic all-D analog; also called D-Piscidin G13K

Tests used:
[1] = target: the molecule itself; test: RP-HPLC temperature profiling, self-association (dimerization/oligomerization)
Procedure: (§1) The purity of the peptides was verified by analytical RP-HPLC and the peptides were characterized by mass spectrometry (LC/MS). Crude and purified peptides were analyzed on an Agilent 1100 series liquid chromatograph (Little Falls, Del., USA). Analytical runs were performed on a Zorbax 300 SB-C₈ column (150×2.1 mm I.D.; 5 μm particle size, 300 Å pore size) from Agilent Technologies using a linear AB gradient (1% acetonitrile/min) and a flow rate of 0.25 mL/min, where eluent A was 0.2% aqueous TFA, pH 2, and eluent B was 0.18% TFA in acetonitrile. Temperature profiling analyses were performed on the same column in 3° C. increments, from 5° C. to 80° C. using a linear AB gradient of 0.5% acetonitrile/min.
^atR denotes retention time in RP-HPLC at pH 2 and room temperature, and is a measure of overall peptide hydrophobicity. ^bThe mean residue molar ellipticities [θ]₂₂₂ (deg cm²/dmol) at wavelength 222 nm were measured at 5° C. in benign conditions (100 mM KCl, 50 mM NaH₂PO₄/Na₂HPO₄, pH 7.0) or in benign buffer containing 50% trifluoroethanol (TFE) by circular dichroism spectroscopy. ^cThe helical content (as a percentage) of a peptide relative to the molar ellipticity value of parent peptide (D-Piscidin 1 or D-Dermaseptin S4) in the presence of 50% TFE. ^dPA denotes self-association parameter (dimerization/oligomerization) of each peptide during RP-HPLC temperature profiling, which is the maximal retention time difference of (tR^t-tR⁵ for peptide analogs)-(tR^t-tR⁵ for control peptide C) within the temperature range; tR^t-tR⁵ is the retention time difference of a peptide at a specific temperature (tR^{t)} compared with that at 5° C. (tR⁵). The sequence of the random coil control peptide C is shown in Table 1. ^eAmphipathicity was determined by calculation of hydrophobic moment using hydrophobicity coefficients determined by reversed-phase chromatography; see methods for details. The amphipathicity values for D-Dermaseptin S4 and its analogs (residues 1-14) are shown in brackets.

[2] = target: the molecule itself; test: RP-HPLC temperature profiling, 5 to 80 C, pH 2 (self-association)
Procedure: as §1
Control peptide C is a monomeric random coil peptide in both aqueous and hydrophobic media; thus, its linear decrease in peptide retention behavior with increasing temperature within the range of 5° C. to 80° C. represents only the general effects of temperature due to greater solute diffusivity and enhanced mass transfer between the stationary and mobile phase at higher temperatures. To allow for these general temperature effects, the data for the control peptide was subtracted from each temperature profile, as shown in FIG. 6B. Thus, the peptide self-association parameter, PA, represents the maximum change in peptide retention time relative to the random coil peptide C. […]

Protein | PA (self-association parameter) [1] [min] | binding result [2]
B1 | 2.29 | –
B2 | 1.29 | –
B3 | 0.69 | –
B4 | – | no binding
B5 | 4.8 | –
B6 | 0.78 | –
B7 | 0.95 | –
